Laboratory results published in patent publication US20260117202A1.
Where “and” joins values, the source holds several entries; their conditions need not be identical. Equal values may be shown once.

Columns and labels:
FHCS-2 (RSV strain A2) [1] = molecular target: FHCS-2 (RSV strain A2) (UniProt P03420); experiment: ELISA; F coated 5000 ng/ml; stored -80° C.
FHCS-4 (RSV strain A2) [2] = molecular target: FHCS-4 (RSV strain A2) (UniProt P03420); experiment: ELISA; F coated 5000 ng/ml; stored -80° C.
FHCS-1 (RSV strain A2) [3] = molecular target: FHCS-1 (RSV strain A2) (UniProt P03420); experiment: ELISA; F coated 5000 ng/ml; stored -80° C.
FHS-88 (RSV strain A2) = FHS-88 (RSV strain A2) (UniProt P03420); experiment: sandwich ELISA, AM14 coated, supernatant 1:10
FHM-24 (RSV strain A2) = FHM-24 (RSV strain A2) (UniProt P03420); experiment: sandwich ELISA, AM14 coated, supernatant 1:10
FHS-68 (RSV strain A2) = FHS-68 (RSV strain A2) (UniProt P03420); experiment: sandwich ELISA, AM14 coated, supernatant 1:10
FHS-77 (RSV strain A2) = FHS-77 (RSV strain A2) (UniProt P03420); experiment: sandwich ELISA, AM14 coated, supernatant 1:10
FHM-4 (RSV strain A2) = FHM-4 (RSV strain A2) (UniProt P03420); experiment: sandwich ELISA, AM14 coated, supernatant 1:10
FHS-22 (RSV strain A2) = FHS-22 (RSV strain A2) (UniProt P03420); experiment: sandwich ELISA, AM14 coated, supernatant 1:10
FHS-90 (RSV strain A2) = FHS-90 (RSV strain A2) (UniProt P03420); experiment: sandwich ELISA, AM14 coated, supernatant 1:10
FHS-41 (RSV strain A2) = FHS-41 (RSV strain A2) (UniProt P03420); experiment: sandwich ELISA, AM14 coated, supernatant 1:10
FHS-92 (RSV strain A2) = FHS-92 (RSV strain A2) (UniProt P03420); experiment: sandwich ELISA, AM14 coated, supernatant 1:10
FHM-19 (RSV strain A2) = FHM-19 (RSV strain A2) (UniProt P03420); experiment: sandwich ELISA, AM14 coated, supernatant 1:10
FHM-13 (RSV strain A2) = FHM-13 (RSV strain A2) (UniProt P03420); experiment: sandwich ELISA, AM14 coated, supernatant 1:10
FHS-23 (RSV strain A2) = FHS-23 (RSV strain A2) (UniProt P03420); experiment: sandwich ELISA, AM14 coated, supernatant 1:10
FHS-84 (RSV strain A2) = FHS-84 (RSV strain A2) (UniProt P03420); experiment: sandwich ELISA, AM14 coated, supernatant 1:10
FHS-7 (RSV strain A2) = FHS-7 (RSV strain A2) (UniProt P03420); experiment: sandwich ELISA, AM14 coated, supernatant 1:10
FHCS-2 (RSV strain A2) [4] = molecular target: FHCS-2 (RSV strain A2) (UniProt P03420); experiment: ELISA; F coated 10000 ng/ml; stored 37° C. 4 W
FHCS-4 (RSV strain A2) [5] = molecular target: FHCS-4 (RSV strain A2) (UniProt P03420); experiment: ELISA; F coated 10000 ng/ml; stored 37° C. 4 W
FHCS-1 (RSV strain A2) [6] = molecular target: FHCS-1 (RSV strain A2) (UniProt P03420); experiment: ELISA; F coated 10000 ng/ml; stored 37° C. 4 W
FHCS-2 (RSV strain A2) [7] = molecular target: FHCS-2 (RSV strain A2) (UniProt P03420); experiment: ELISA; F coated 78.13 ng/ml; stored -80° C.
FHCS-4 (RSV strain A2) [8] = molecular target: FHCS-4 (RSV strain A2) (UniProt P03420); experiment: ELISA; F coated 78.13 ng/ml; stored -80° C.
FHCS-1 (RSV strain A2) [9] = molecular target: FHCS-1 (RSV strain A2) (UniProt P03420); experiment: ELISA; F coated 78.13 ng/ml; stored -80° C.
FHCS-2 (RSV strain A2) [10] = molecular target: FHCS-2 (RSV strain A2) (UniProt P03420); experiment: ELISA; F coated 625 ng/ml; stored 37° C. 2 W
FHCS-4 (RSV strain A2) [11] = molecular target: FHCS-4 (RSV strain A2) (UniProt P03420); experiment: ELISA; F coated 625 ng/ml; stored 37° C. 2 W
FHCS-1 (RSV strain A2) [12] = molecular target: FHCS-1 (RSV strain A2) (UniProt P03420); experiment: ELISA; F coated 625 ng/ml; stored 37° C. 2 W
FHCS-2 (RSV strain A2) [13] = molecular target: FHCS-2 (RSV strain A2) (UniProt P03420); experiment: ELISA; F coated 156.3 ng/ml; stored 37° C. 2 W
FHCS-4 (RSV strain A2) [14] = molecular target: FHCS-4 (RSV strain A2) (UniProt P03420); experiment: ELISA; F coated 156.3 ng/ml; stored 37° C. 2 W
FHCS-1 (RSV strain A2) [15] = molecular target: FHCS-1 (RSV strain A2) (UniProt P03420); experiment: ELISA; F coated 156.3 ng/ml; stored 37° C. 2 W
FHCS-2 (RSV strain A2) [16] = molecular target: FHCS-2 (RSV strain A2) (UniProt P03420); experiment: ELISA; F coated 156.3 ng/ml; stored -80° C.
FHCS-4 (RSV strain A2) [17] = molecular target: FHCS-4 (RSV strain A2) (UniProt P03420); experiment: ELISA; F coated 156.3 ng/ml; stored -80° C.
FHCS-2 (RSV strain A2) [18] = molecular target: FHCS-2 (RSV strain A2) (UniProt P03420); experiment: ELISA; F coated 78.13 ng/ml; stored 37° C. 2 W
FHCS-2 (RSV strain A2) [19] = molecular target: FHCS-2 (RSV strain A2) (UniProt P03420); experiment: ELISA; F coated 156.3 ng/ml; stored -80° C.; remark: listed apart in the source
FHCS-4 (RSV strain A2) [20] = molecular target: FHCS-4 (RSV strain A2) (UniProt P03420); experiment: ELISA; F coated 156.3 ng/ml; stored -80° C.; remark: listed apart in the source
FHCS-1 (RSV strain A2) [21] = molecular target: FHCS-1 (RSV strain A2) (UniProt P03420); experiment: ELISA; F coated 156.3 ng/ml; stored -80° C.
FHCS-2 (RSV strain A2) [22] = molecular target: FHCS-2 (RSV strain A2) (UniProt P03420); experiment: ELISA; F coated 625 ng/ml; stored -80° C.
FHCS-4 (RSV strain A2) [23] = molecular target: FHCS-4 (RSV strain A2) (UniProt P03420); experiment: ELISA; F coated 625 ng/ml; stored -80° C.
FHCS-1 (RSV strain A2) [24] = molecular target: FHCS-1 (RSV strain A2) (UniProt P03420); experiment: ELISA; F coated 625 ng/ml; stored -80° C.

AM14 monoclonal antibody
OD value (FHCS-2 (RSV strain A2) [1]): 0.203 OD and 0.382 OD | OD value (FHCS-4 (RSV strain A2) [2]): 0.404 OD and 0.294 OD | OD value (FHCS-1 (RSV strain A2) [3]): 0.158 OD and 0.167 OD | OD value (FHS-88 (RSV strain A2)): 2.3 OD | OD value (FHM-24 (RSV strain A2)): 1.61 OD | OD value (FHS-68 (RSV strain A2)): 1.99 OD | OD value (FHS-77 (RSV strain A2)): 0.06 OD | OD value (FHM-4 (RSV strain A2)): 0.028 OD | OD value (FHS-22 (RSV strain A2)): 0.01 OD | OD value (FHS-90 (RSV strain A2)): 0.007 OD | OD value (FHS-41 (RSV strain A2)): 0.006 OD | OD value (FHS-92 (RSV strain A2)): 0.012 OD | OD value (FHM-19 (RSV strain A2)): 0.367 OD | OD value (FHM-13 (RSV strain A2)): 1.07 OD | OD value (FHS-23 (RSV strain A2)): 0.008 OD | OD value (FHS-84 (RSV strain A2)): 1.01 OD | OD value (FHS-7 (RSV strain A2)): 0.011 OD | OD value (FHCS-2 (RSV strain A2) [4]): 2.11 OD and 2.23 OD | OD value (FHCS-4 (RSV strain A2) [5]): 1.76 OD and 2.01 OD | OD value (FHCS-1 (RSV strain A2) [6]): 1.87 OD and 2.17 OD

Synagis® (antibody)
OD value (FHCS-2 (RSV strain A2) [7]): 0.014 OD and 0.015 OD | OD value (FHCS-4 (RSV strain A2) [8]): 0.009 OD and 0.011 OD | OD value (FHCS-1 (RSV strain A2) [9]): 0.009 OD and 0.01 OD | OD value (FHCS-2 (RSV strain A2) [10]): 0.211 OD and 0.227 OD | OD value (FHCS-4 (RSV strain A2) [11]): 0.187 OD and 0.166 OD | OD value (FHCS-1 (RSV strain A2) [12]): 0.123 OD and 0.125 OD | OD value (FHCS-2 (RSV strain A2) [13]): 0.037 OD and 0.036 OD | OD value (FHCS-4 (RSV strain A2) [14]): 0.033 OD and 0.024 OD | OD value (FHCS-1 (RSV strain A2) [15]): 0.017 OD and 0.018 OD | OD value (FHCS-2 (RSV strain A2) [16]): 0.028 OD and 0.032 OD | OD value (FHCS-4 (RSV strain A2) [17]): 0.021 OD and 0.017 OD | OD value (FHCS-2 (RSV strain A2) [18]): 0.018 OD and 0.022 OD | OD value (FHCS-2 (RSV strain A2) [19]): 0.043 OD and 0.038 OD | OD value (FHCS-4 (RSV strain A2) [20]): 0.016 OD | OD value (FHCS-1 (RSV strain A2) [21]): 0.021 OD and 0.019 OD | OD value (FHCS-2 (RSV strain A2) [22]): 0.409 OD and 0.307 OD | OD value (FHCS-4 (RSV strain A2) [23]): 0.11 OD | OD value (FHCS-1 (RSV strain A2) [24]): 0.161 OD and 0.154 OD
